Data set [1] relates to E81C and E84C AChEs. Kind of data set: Edrophonium binding, stopped-flow tryptophan fluorescence quenching (koff/kon). Particulars: unlabeled mutant. More on the design: species or system mouse. As for the experimental part: (§1) Association and dissociation rate constants of edrophonium and […] with E81C and E84C AChEs were determined from changes in the tryptophan fluorescence using a stopped-flow spectrophotometer as described previously (29). Time-dependent decreases in tryptophan fluorescence were observed upon excitation at 276 nm by means of a 305 nm emission cut-off filter.

The subject of the next data set is mouse AChE. Description: TFK+ inhibition, association rate from residual enzyme activity. Type of data set: biochemical. Particulars: for TFK+ kon: unlabeled enzyme, from measurements of enzyme activity. The protocol:
Trifluoroacetophenone Inhibition—Picomolar amounts of enzyme in 0.01% bovine serum albumin in 0.1 M sodium phosphate buffer, pH 7.0, were reacted with TFK^+ in the absence of substrate. Inhibition was monitored by measuring residual enzyme activity by removal of aliquots during the course of the reaction. Bimolecular rate constants of inhibition were determined by nonlinear fit of the data (28). ΔF=ΔFmax(Et+It+Kd−/(Et+It+Kd)^2−4 EtIt∫^0.5)(2Et)^−1 (Eq. 1)
(§2) TFK^+ binding to cysteine-substituted enzymes, both free and modified with acrylodan, was also examined (Table II). For E81C and E84C, the association rate constants (kon) for TFK^+ were obtained from measurements of enzyme activity. […] For acrylodan-labeled mutants, kon was measured from the time-dependent decrease of fluorescence signal (FIG. 3).

Data set [2] addresses T1, acrylodan-labeled mouse AChE mutants (Mus musculus, UniProt P21836, E115C).
T1 construct: made in house; host or cells: HEK293
Particulars: edrophonium, tacrine or huperzine bound.

Data set [3] relates to E81C and E84C AChEs. Kind of data set: BW284c51 binding, stopped-flow tryptophan fluorescence quenching (koff/kon). More on the design: species or system mouse. The settings on record: unlabeled mutant. The protocol: as §1
The target of data set [4] is T2, acrylodan-labeled E81C and E84C (Mus musculus, UniProt P21836, E115C).
T2 construct: made in house; host or cells: HEK293
Type of data set: binding. Particulars: acrylodan-conjugated E84C. As for the experimental part: as §2

The subject of data set [5] is wild type and mutant mouse AChEs. Kind of data set: Acetylthiocholine hydrolysis kinetics (Ellman method). Type of data set: biochemical. Particulars: means ± S.D. As for the experimental part: Assay of Catalytic Activity—The spectrophotometric method of Ellman was used (25), and kinetic constants for acetylthiocholine hydrolysis were determined by fitting the observed rates as described (26). Titration of active sites with known concentrations of the irreversible phosphorylating agent, MEPQ, was accomplished by the method of Levy and Ashani (27).
(In general: In Ellman's method for cholinesterases, released thiocholine reacts with DTNB.)

Data set [6] shares this test system. Particulars: data from Boyd et al. 2000, cited from earlier work; for Km / kcat: acetylthiocholine hydrolysis; for b: relative catalytic turnover of the ternary complex; for KSS: substrate inhibition or activation constant.

Where a chain is given by its changes, count along the chain named. In names and notes the source's numbering stands. Several values for one entry are separate records, joined by “and”; a condition that tells them apart may be missing. Equal entries are not always repeated. Where two headings read alike, the source gives them in different places.

The term Km denotes the substrate concentration at which the rate is half of its maximum.

B1: E84C (protein, UniProt P21836 32-614, looked up, variant E84C)
Acetylcholinesterase: EGREDPQLLVRVRGGQLRGIRLKAPGGPVSAFLGIPFAEPPVGSRRFMPPEPKRPWSGVLDATTFQNVCYQYVDTLYPGFEGTCMWNPNRELSEDCLYLNVWTPYPRPASPTPVLIWIYGGGFYSGAASLDVYDGRFLAQVEGAVLVSMNYRVGTFGFLALPGSREAPGNVGLLDQRLALQWVQENIAAFGGDPMSVTLFGESAGAASVGMHILSLPSRSLFHRAVLQSGTPNGPWATVSAGEARRRATLLARLVGCPPGGAGGNDTELIACLRTRPAQDLVDHEWHVLPQESIFRFSFVPVVDGDFLSDTPEALINTGDFQDLQVLVGVVKDEGSYFLVYGVPGFSKDNESLISRAQFLAGVRIGVPQASDLAAEAVVLHYTDWLHPEDPTHLRDAMSAVVGDHNVVCPVAQLAGRLAAQGARVYAYIFEHRASTLTWPLWMGVPHGYEIEFIFGLPLDPSLNYTTEERIFAQRLMKYWTNFARTGDPNDPRDSKSPQWPPYTTAAQQYVSLNLKPLEVRRGLRAQTCAFWNRFLPKLLSATDTLDEAERQWKAEFHRWSSYMVHWKNQFDHYSKQERCSDL
On to B1, for which the “Edrophonium Kd ratio to wild type (head is formula MATH:2)” value in the data set on E81C and E84C AChEs [1] was 2 and 2.2. The “TFK+ kon” value in the data set on mouse AChE is listed as 93 10^9M^−1min^−1. Besides, the “TFK+ kon ratio to wild type (head is formula MATH:1)” value in the data set with mouse AChE (unlabeled mutant) was found to be 1.6. Besides, the “bathochromic shift upon inhibitor binding” value in data set [2] amounted to 33 nm. In addition, the “BW284c51 Kd ratio to wild type (head is formula MATH:3)” value with E81C and E84C AChEs [3] stood at 18. Moreover, in data set [4], the “reduction of kon of TFK+ by acrylodan conjugation compared with unconjugated E84C” value is listed as 7 fold. Moreover, in data set [5] (acetylthiocholine hydrolysis), the Michaelis constant (Km) came out at 190 ± 9 µM and the kcat is listed as 1.9 ± 0.4 10^5/min. The molecule further showed a b in data set [5] (relative catalytic turnover of the ternary complex) of 0.2 ± 0.05. For the same molecule, in data set [5] (substrate inhibition or activation constant), the KSS is recorded as 26 ± 2 mM.

B2: Wild Type (protein, UniProt P21836 32-614, looked up)
Acetylcholinesterase: B1 Acetylcholinesterase with C84E
Take B2: in data set [6], the Km was 54 ± 16 µM, the kcat is listed as 1.6 ± 0.4 10^5/min, the b is on record as 0.2 ± 0.07 and the KSS is 14 ± 5 mM. For the same molecule, the “TFK+ kon” value with mouse AChE is given as 150 10^9M^−1min^−1.

B3: A262C (protein, UniProt P21836 32-614, looked up, variant A262C)
Acetylcholinesterase: B1 Acetylcholinesterase with C84E, A262C
As for B3, in data set [6], the Km was 59 ± 4 µM, the kcat is 1.6 ± 0.1 10^5/min, the b is given as 0.2 ± 0.04 and the KSS is listed as 11 ± 3 mM.

B4: H287C (protein, UniProt P21836 32-614, looked up, variant H287C)
Acetylcholinesterase: B1 Acetylcholinesterase with C84E, H287C
B4: in data set [6], the Km is 58 ± 7 µM, the kcat was 1.8 ± 0.2 10^5/min, the b is given as 0.2 ± 0.06 and the KSS is reported as 12 ± 6 mM.

Values taken from US20050089926A1, “Ligand sensing fluorescent acetylcholinesterase for detection of organophosphate activity” (priority 2002, published 2005).
